The record followed here is patent US6436636B1, “Methods for identifying pharmacologicals for the treatment of heart failure” (Wake Forest University, priority 1995, dated 2002).

Holding throughout (test): UV-crosslinking of recombinant p37AUF1 to radiolabeled RNA
Common to all, as to type: binding
Common to all, as to conditions: UV irradiation, Rnase A+T1 digestion, SDS-PAGE, autoradiography

For one assay, the system named is human β1-AR 3′UTR RNA. The text has this: (§1) FIG. 5 represents an autoradiogram showing UV-crosslinking of purified, recombinant p37AUF1 polypeptide to human β1-AR 3′UTR RNA. Autoradiogram of recombinant p37AUF1 UV-crosslinked to radiolabeled, in vitro transcribed human β1-AR 3′UTR RNA. Lane 1, β1-AR RNA in the absence of competitor RNA. Lanes 2 and 3, β1-AR RNA is the presence of 10-fold and 100-fold molar excess of unlabeled β1-AR RNA. Lane 4, β1-AR RNA in the presence of 100-fold molar excess of rabbit β-globin RNA (Rb). Lane 5, c-fos ARE only. Lane 6, rabbit β-globin RNA only.
(§2) To show AUF1 binds to the human β1-AR 3′UTR, radiolabeled RNA was incubated with purified, recombinant p37AUF1, subjected to UV irradiation, Rnase A+T1 digestion, SDS-PAGE, and autoradiography. Recombinant p37AUF1 polypeptide binds to the β1-AR 3′UTR and to the c-fos ARE but fails to bind to rabbit β-globin (Rβ) RNA (FIG. 5).
A 919 bp cDNA fragment corresponding to the β1AR 3′ UTR was synthesized by PCR and subcloned into pcDNA3 (Invitrogen) utilizing the Xho I and Xba I restriction endonuclease sites. The resulting vector was linearized with Xba I, and in vitro transcription was performed as described in Port et al., J. Biol. Chem. 267:24103-24108 (1992). Briefly, radiolabeled RNA was synthesized using T7 DNA-directed RNA polymerase and [α-^32P]UTP (800 Ci/mmol, New England Nuclear) to produce uniformly labeled, 5′-capped RNA. […]

The subject of the next assay is c-fos ARE.
Excerpt: as §1, §2
(§3) A 0.3M KC1 ribosomal salt wash (RSW) was produced from DDT1-MF2 cells using the method of Brewer and Ross, Methods in Enzyznology 181:202-209 (1990). UV-crosslinking was performed as described in Port et al., J. Biol. Chem. 267:24103-24108 (1992) Briefly, an aliquot of radiolabeled RNA (1-4×10^6 cpm) was added to a mixture containing 20 μl of RSW (˜5×10^6 cell equivalents/μl) from DDT1-MF2 cells, 5 μg of yeast tRNA, 4 mM dithiothreitol, 5 μg heparin, and 65 units of Rnasin™ in a total volume of 50 μl. […]

A further assay relates to rabbit β-globin (Rβ) RNA.
Excerpt: as §1, §2, §3

B1: p37AUF1: purified, recombinant p37AUF1 polypeptide (His6 fusion expressed in E. coli), A+U-rich element RNA-binding factor (protein)
chain: MSEEQFGGDGAAAAATAAVGGSAGEQEGAMVAATQGAAAAAGSGAGTGGGTASGGTEGGSAESEGAKIDASKNEEDEGKMFIGGLSWDTTKKDLKDYFSKFGEVVDCTLKLDPITGRSRGFGFVLFKESESVDKVMDQKEHKLNGKVIDPKRAKAMKTKEPVKKIFVGGLSPDTPEEKIREYFGGFGEVESIELPMDNKTNKRRGFCFITFKEEEPVKKIMEKKYHNVGLSKCEIKVAMSKEQYQQQQQWGSRGGFAGRARGRGGDQQSGYGKVSRRGGHQNSYKPY
modifications: left off: small tags and cut ends
For the molecule B1, the “binding to β1-AR 3′UTR” value in the assay with human β1-AR 3′UTR RNA is “binds”. The “binding to c-fos ARE” value in the assay on c-fos ARE is listed as “binds”. For the same molecule, the “binding to rabbit β-globin (Rβ) RNA” value with rabbit β-globin (Rβ) RNA is listed as “fails to bind”.
